Assay results: US20250059280A1 (AbbVie / Abbott, published 2025)

Key:
[1] = biological target: T1, human programmed death receptor 1 (PD-1) (human, UniProt Q15116 25-288); experiment: ratio of in vitro PD-1 receptor saturation EC50 values on CD8+ T cells, reference mAb2
T1 construct: whole, on cells; Endogenous PD-1 on T cells of donors or study subjects; also called PD-1 receptor

[2] = biological target: T1, human programmed death receptor 1 (PD-1); experiment: in vitro PD-1 receptor saturation on CD8+ T cells, flow cytometry, whole blood, Emax model fit

T1 sequence (Q15116 25-288): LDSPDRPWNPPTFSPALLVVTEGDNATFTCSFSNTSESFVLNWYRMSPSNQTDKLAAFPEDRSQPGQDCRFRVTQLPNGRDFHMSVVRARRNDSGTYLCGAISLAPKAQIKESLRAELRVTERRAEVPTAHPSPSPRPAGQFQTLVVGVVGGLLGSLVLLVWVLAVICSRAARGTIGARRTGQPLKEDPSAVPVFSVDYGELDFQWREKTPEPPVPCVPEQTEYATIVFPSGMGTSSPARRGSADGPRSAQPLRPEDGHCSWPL

B1: cemiplimab (Catalog No. A2022, Selleckchem) (antibody, V domains shown)
VH: EVQLLESGGVLVQPGGSLRLSCAASGFTFSNFGMTWVRQAPGKGLEWVSGISGGGRDTYFADSVKGRFTISRDNSKNTLYLQMNSLKGEDTAVYYCVKWGNIYFDYWGQGTLVTVSS
VL: DIQMTQSPSSLSASVGDSITITCRASLSINTFLNWYQQKPGKAPNLLIYAASSLHGGVPSRFSGSGSGTDFTLTIRTLQPEDFATYYCQQSSNTPFTFGPGTVVDFR
B1 was tested, and the “Scaling Factor (ratio of EC50 of PD-1 saturation to the EC50 of mAb2)” value [1] was 2.67 and the EC95 [2] was 0.366 µg/mL.
